Target: recombinant human PCSK9 with 6x His tag (proprotein convertase subtilisin/kexin type-9) (human, UniProt Q8NBP7 31-692)
Assay: BLI

koff: 0.00132 s⁻¹
B1: recombinant human CAP1 (adenylyl cyclase-associated protein 1) (natural protein)
chain: MADMQNLVERLERAVGRLEAVSHTSDMHRGYADSPSKAGAAPYVQAFDSLLAGPVAEYLKISKEIGGDVQKHAEMVHTGLKLERALLVTASQCQQPAENKLSDLLAPISEQIKEVITFREKNRGSKLFNHLSAVSESIQALGWVAMAPKPGPYVKEMNDAAMFYTNRVLKEYKDVDKKHVDWVKAYLSIWTELQAYIKEFHTTGLAWSKTGPVAKELSGLPSGPSAGSCPPPPPPCPPPPPVSTISCSYESASRSSLFAQINQGESITHALKHVSDDMKTHKNPALKAQSGPVRSGPKPFSAPKPQTSPSPKRATKKEPAVLELEGKKWRVENQENVSNLVIEDTELKQVAYIYKCVNTTLQIKGKINSITVDNCKKLGLVFDDVVGIVEIINSKDVKVQVMGKVPTISINKTDGCHAYLSKNSLDCEIVSAKSSEMNVLIPTEGGDFNEFPVPEQFKTLWNGQKLVTTVTEIAG

Source: publication PMC10981688 (2024)
